The source of these data is the Immune Epitope Database (IEDB).

The target of one test is HLA-A*01:01. In words: IEDB peptide-MHC binding, purified MHC/direct/fluorescence; filed as Kd, often an IC50 or EC50 that approximates it; ≥ and ≤ were set here for values at or beyond the usual limits of such assays.
Test [1] concerns the target HLA-A*03:01. The description is as above. The following applies: source organism: Cryptosporidium hominis.
Test [2] deals with HLA-A*31:01. The test is described as above.
The target in a further test is HLA-B*07:02. The test is described as above. Conditions: source organism: Cryptosporidium hominis.
The next test deals with HLA-B*08:03. The test is described as above. The following applies: source organism: Cryptosporidium parvum Iowa II.
For another test, the target named is HLA-B*18:01. Described as above. The following applies: source organism: Cryptosporidium hominis.
Another test concerns the target HLA-B*40:01. The description is as above.
Another test concerns the target HLA-B*44:02. The test is described as above. Conditions: source organism: Cryptosporidium hominis.
A further test addresses HLA-B*48:01. Described as above.
For test [3], the target named is HLA-B*57:01. Described as above. The following applies: source organism: Cryptosporidium hominis.
For another test, the target named is HLA-B*58:01. The description is as above.
A further test deals with HLA-C*03:03. The description is as above. The following applies: source organism: Rickettsia rickettsii str. 'Sheila Smith'.
Another test concerns the target HLA-C*08:02. The test is described as above.
The next test deals with HLA-C*12:03. The test is described as above.
Test [4] addresses HLA-A*03:01. In words: IEDB peptide-MHC binding, purified MHC/competitive/radioactivity; filed as Kd, often an IC50 or EC50 that approximates it; ≥ and ≤ were set here for values at or beyond the usual limits of such assays. Conditions: source organism: Vaccinia virus WR.
The target in test [5] is HLA-A*11:01. The test is described as above. The following applies: source organism: Vaccinia virus WR.
Test [6] deals with HLA-A*31:01. The test is described as above. The following applies: source organism: Vaccinia virus WR.
A further test addresses HLA-A*33:01. Described as above. The following applies: source organism: Vaccinia virus WR.
The target of another test is HLA-A*68:01. The description is as above. Conditions: source organism: Vaccinia virus WR.
Test [7] concerns the target HLA-A*02:01. In words: IEDB peptide-MHC binding, purified MHC/direct/fluorescence; filed as Kd, often an IC50 or EC50 that approximates it; ≥ and ≤ were set here for values at or beyond the usual limits of such assays. The following applies: source organism: Camelpox virus M-96.
A further test concerns the target HLA-A*26:01. The test is described as above. Conditions: source organism: Variola virus.
Test [8] concerns the target HLA-A*69:01. The test is described as above. The following applies: source organism: Camelpox virus M-96.
A further test deals with HLA-B*08:01. Described as above. The following applies: source organism: Variola virus.
In the next test the target is HLA-B*15:09. The test is described as above. The following applies: source organism: Variola virus.
The next test deals with HLA-B*27:05. The test is described as above. Conditions: source organism: Camelpox virus M-96.
For test [9], the target named is HLA-B*39:01. The test is described as above. Conditions: source organism: Variola virus.
Test [10] deals with HLA-A*03:01. In words: IEDB peptide-MHC binding, purified MHC/competitive/fluorescence; filed as Kd, often an IC50 or EC50 that approximates it; ≥ and ≤ were set here for values at or beyond the usual limits of such assays. The following applies: source organism: Vaccinia virus Copenhagen.
Test [11] deals with HLA-A*11:01. The description is as above. The following applies: source organism: Vaccinia virus Copenhagen.
In another test the target is HLA-B*15:01. Described as above. Conditions: source organism: Vaccinia virus Copenhagen.
In another test the target is HLA-B*15:17. The test is described as above. The following applies: source organism: Vaccinia virus Copenhagen.
In test [12] the target is HLA-B*57:01. The test is described as above. Conditions: source organism: Vaccinia virus Copenhagen.
Test [13] has as its target HLA-A*02:01. The test is described as above. Conditions: source organism: Mus musculus.
For test [14], the target named is HLA-A*69:01. Described as above. Conditions: source organism: Mus musculus.
In another test the target is HLA-B*27:03. The test is described as above. The following applies: source organism: Mus musculus.
Test [15] has as its target HLA-B*39:01. The test is described as above. The following applies: source organism: Mus musculus.
Another test has as its target HLA-B*46:01. The test is described as above. Conditions: source organism: Mus musculus.
A further test has as its target HLA-B*51:01. The test is described as above. Conditions: source organism: Mus musculus.
[16] abbreviates: source organism: Cryptosporidium hominis.
Setting [17] is: source organism: Rickettsia rickettsii str. 'Sheila Smith'.
[18] abbreviates: source organism: Camelpox virus M-96.

By Kd is commonly meant the constant that tells how readily two partners part at equilibrium. For FMKSRVYSI, the Kd with HLA-A*01:01 (setting [16]) is at least 20 µM; in the test with HLA-A*03:01 [1], at least 20 µM; with HLA-A*31:01 [2] (setting [16]) it was at least 20 µM; in the test with HLA-B*07:02, at least 20 µM; with HLA-B*08:03 it was 0.029 µM; with HLA-B*18:01 it was at least 20 µM. In addition, the Kd in the test with HLA-B*40:01 (setting [16]), in the test with HLA-B*44:02, in the test with HLA-B*48:01 (setting [16]), with HLA-B*57:01 [3] and in the test with HLA-B*58:01 (setting [16]) was at least 20 µM throughout.
With FMPESSYLL, the Kd was 0.443 µM with HLA-C*03:03, at least 20 µM in the test with HLA-C*08:02 (setting [17]) and 0.707 µM with HLA-C*12:03 (setting [17]).
FTDISMSLY: the Kd with HLA-A*01:01 (setting [18]) was at most 0.001 µM; with HLA-C*08:02 (source organism: Variola virus) it was 0.019 µM; in the test with HLA-A*03:01 [4], at least 32.2 µM; in the test with HLA-A*11:01 [5] it was 2.53 µM; in the test with HLA-A*31:01 [6], 10.7 µM; with HLA-A*33:01, at least 77.7 µM. The Kd with HLA-A*68:01 stood at 0.546 µM.
MTRVTNNVY: the Kd with HLA-A*01:01 (setting [18]) is 2.59 µM; with HLA-A*02:01 [7], at least 20 µM; with HLA-A*26:01, 0.237 µM; in the test with HLA-A*31:01 [2] (setting [18]), at least 20 µM; with HLA-A*69:01 [8], at least 20 µM; with HLA-B*08:01, at least 20 µM. The Kd was at least 20 µM with HLA-B*15:09; at least 20 µM with HLA-B*27:05; at least 20 µM in the test with HLA-B*39:01 [9]; at least 20 µM with HLA-B*40:01 (setting [18]); at least 20 µM in the test with HLA-B*48:01 (setting [18]); 0.635 µM in the test with HLA-B*58:01 (source organism: Variola virus). The Kd in the test with HLA-A*03:01 [10] was at least 20 µM; with HLA-A*11:01 [11], at least 20 µM; in the test with HLA-B*15:01, 0.125 µM; with HLA-B*15:17, at most 0.001 µM; in the test with HLA-B*57:01 [12] it was 0.0986 µM.
As for YTFCGTIEY, the equilibrium dissociation constant (Kd) in the test with HLA-C*08:02 (source organism: Mus musculus) was at least 20 µM; in the test with HLA-C*12:03 (source organism: Mus musculus) it was at most 0.001 µM; with HLA-A*02:01 [13] it was at least 20 µM; with HLA-A*69:01 [14] it was at least 20 µM; with HLA-B*27:03, at least 20 µM; with HLA-B*39:01 [15], at least 20 µM. For the same sequence, the Kd with HLA-B*46:01 is 0.0114 µM; with HLA-B*51:01, at least 20 µM.
